T1: Purified CEA (Biodesign International) (UniProt P06731 35-685)
T1 construct: Bought purified antigen, immobilized on 96-well plates at 5 ug/ml; also called carcinoembryonic antigen; target protein CEA
T1 sequence: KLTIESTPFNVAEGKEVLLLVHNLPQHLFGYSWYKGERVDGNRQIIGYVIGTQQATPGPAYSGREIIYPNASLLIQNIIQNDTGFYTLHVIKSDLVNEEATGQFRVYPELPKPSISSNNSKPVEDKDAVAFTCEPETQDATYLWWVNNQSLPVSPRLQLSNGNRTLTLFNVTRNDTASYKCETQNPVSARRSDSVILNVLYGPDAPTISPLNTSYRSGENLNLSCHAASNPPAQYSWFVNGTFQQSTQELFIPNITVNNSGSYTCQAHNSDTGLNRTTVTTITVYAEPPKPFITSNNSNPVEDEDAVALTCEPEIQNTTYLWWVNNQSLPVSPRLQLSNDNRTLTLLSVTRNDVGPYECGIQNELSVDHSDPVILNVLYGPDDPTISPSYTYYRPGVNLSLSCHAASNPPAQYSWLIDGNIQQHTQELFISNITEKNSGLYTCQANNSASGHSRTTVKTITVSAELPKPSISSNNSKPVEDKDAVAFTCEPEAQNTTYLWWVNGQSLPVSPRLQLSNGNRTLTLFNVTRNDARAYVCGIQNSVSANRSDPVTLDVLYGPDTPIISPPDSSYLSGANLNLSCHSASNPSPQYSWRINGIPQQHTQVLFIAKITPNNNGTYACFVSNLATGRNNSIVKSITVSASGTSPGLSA


Columns and labels:
[1] = molecular target: T1, Purified CEA (Biodesign International); assay: plate assay: CEA immobilized at 5 ug/ml, serially diluted B-Per extract, bound CAB read by nitrocefin hydrolysis at 490 nm
[2] = molecular target: T1, Purified CEA (Biodesign International); assay: plate assay: purified CEA immobilized at 5 ug/ml, 2-fold dilutions of purified CAB1.11i, bound BLA activity read with nitrocefin at 490 nm

| Binder | binding result [1] | binding result [2] |
| --- | --- | --- |
| CAB1.11 molecule (scFv, scFv-BLA fusion; also called HR14.8; clone HR14.8) DIVLTQSPASLSVSLGQRATMSCRAGESVDIFGVGFLHWYQQKPGQPPKLLIYRASNLESGIPVRFSGTGSGTDFTLIIDPVEADDVATYYCQQTNEDPYTFGGGTKLEIKGGGGSGGGGSGGGGSGGGGSGGGGSGGGGSEVQLQQSGAELVEPGASVKLSCTASGFNIKDTYMHWVKQRPEQGLEWIGRIDPANGNSKYVPKFQGKATITADTSSNTAYLQLTSLTSEDTAVYYCAPFGYYVSDYAMAYWGQGTSVTVSSTPVSEKQLAEVVANTITPLMKAQSVPGMAVAVIYQGKPHYYTFGKADIAANKPVTPQTLFELGSISKTFTGVLGGDAIARGEISLDDAVTRYWPQLTGKQWQGIRMLDLATYTAGGLPLQVPDEVTDNASLLRFYQNWQPQWKPGTTRLYANASIGLFGALAVKPSGMPYEQAMTTRVLKPLKLDHTWINVPKAEEAHYAWGYRDGKAVRVSPGMLDAQAYGVKTNVQDMANWVMANMAPENVADASLKQGIALAQSRYWRIGSMYQGLGWEMLNWPVEANTVVETSFGNVALAPLPVAEVNPPAPPVKASWVHKTGSTGGFGSYVAFIPEKQIGIVMLANTSYPNPARVEAAYHILEALQ | binds |  |
| CAB1.11i molecule (scFv, Single-chain fusion of a T84.66-derived anti-CEA scFv (vL-(GGGGS)6-vH) to deimmunized beta-lactamase (BLA); also called encoded by plasmid pHR19.2) DIVLTQSPASLSVSLGQRATMSCRAGESVDIFGVGFLHWYQQKPGQPPKLLIYRASNLESGIPVRFSGTGSGTDFTLIIDPVEADDVATYYCQQTNEDPYTFGGGTKLEIKGGGGSGGGGSGGGGSGGGGSGGGGSGGGGSEVQLQQSGAELVEPGASVKLSCTASGFNIKDTYMHWVKQRPEQGLEWIGRIDPANGNSKYVPKFQGKATITADTSSNTAYLQLTSLTSEDTAVYYCAPFGYYVSDYAMAYWGQGTSVTVSSTPVSEKQLAEVVANTITPLMAAQSVPGMAVAVIYQGKPHYYTFGKADIAANKPVTPQTLFELGSISKTFTGVLGGDAIARGEISLDDAVTRYWPQLTGKQWQGIRMLDLATYTAGGLPLQVPDEVTDNASLLRFYQNWQPQWKPGTTRLYANASIGLFGALAVKPSGMPYEQAMTTRVLKPLKLDHTWINVPKAEEAHYAWGYRDGKAVRVSPGMLDAQAYGVKTNVQDMANWVMANMAPENVADASLKQGIALAQSRYWRIGSMYQGLGWEMLNWPVEANTVVETSFGNVALAPLPVAEVNPPAPPVKASWVHKTGSTGGFGAYVAFIPEKQIGIVMLANTSYPNPARVEAAYHILEALQ |  | binds |
